Assay results published in patent publication EP2500357A2 (Abbott Laboratories, dated 2012).
Read-outs that look alike come from different tables or passages of the source.

T1: recombinant human IL-1α (human, UniProt P01583 113-271)
T1 sequence (looked up): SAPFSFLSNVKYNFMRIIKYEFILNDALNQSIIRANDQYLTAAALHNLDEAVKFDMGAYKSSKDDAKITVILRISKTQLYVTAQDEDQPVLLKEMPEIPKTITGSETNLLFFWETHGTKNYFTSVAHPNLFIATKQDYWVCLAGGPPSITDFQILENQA


How the values were obtained:
Experiment in all cases: cell-based or functional assay
[1] = biological target: T1, recombinant human IL-1α
[2] = biological target: T2, recombinant human IL-1β (human, UniProt P01584 117-269)
[3] = biological target: T2, recombinant human IL-1β; remark: listed apart in the source
[4] = biological target: T1, recombinant human IL-1α; remark: listed apart in the source
[5] = biological target: T1, recombinant human IL-1α; remark: listed apart in the source

Potency (IC50), MRC-5 bioassay [1] [nM]	Potency (IC50), MRC-5 bioassay [2] [nM]	Binder	also measured
0.7	–	hIL-1a/bDVD3b-Ig (bispecific antibody, human IgG1, kappa) heavy: not shown light: ETTVTQSPASLSMAIGEKVTIRCITSTDIDVDMNWYQQKPGEPPKLLISQGNTLRPGVPSRFSSSGSGTDFVFIIENMLSEDVADYYCLQSDNLPLTFGAGTKLELKRTVAAPDIVMTQSQRFMSTSVGDRVSVTCKASQNVGTNIAWYQQKPGQSPRALIYSASYRYSGVPDRFTGSGSGTDFTLTISNVQSVDLAEYFCQQYTRYPLTFGGGTKLEIKRTVAAPSVFIFPPSDEQLKSGTASVVCLLNNFYPREAKVQWKVDNALQSGNSQESVTEQDSKDSTYSLSSTLTLSKADYEKHKVYACEVTHQGLSSPVTKSFNRGEC	–
1	0.75	hIL-1a/bDVD6b-Ig (bispecific antibody, human IgG1, kappa) heavy: not shown light: QIVLTQSPAIMSASPGEKVTITCSASSSVSYMHWFQQKPGASPKLWIYSTSNLASGVPARFSGSGSGTSYSLTVSRMEAEDAATYYCQQRSTYPYTFGGGTKLEIKRTVAAPSVFIFPPQIVLTQSPALMSASPGEKVTMTCSASSSVNYMYWYQQKPRSSPKPWIYLTSNLASGVPARFSGSGSGTSYSLTISSMEAEDAATYYCQQWNSNPYTFGGGTKLEMKRTVAAPSVFIFPPSDEQLKSGTASVVCLLNNFYPREAKVQWKVDNALQSGNSQESVTEQDSKDSTYSLSSTLTLSKADYEKHKVYACEVTHQGLSSPVTKSFNRGEC	–
–	–	chimeric 13F5.G5 Ab (13F5.G5-VH-Cγ1 / 13F5.G5-VL-Cκ) (antibody, V domains shown) VH: QVQLQQSGAELVRPGSSVKISCKASGYAFSSYWMNWVKQRPGQGLEWIGQIYPGDGDTNYNGKFKGKATLTADKSSSTSYMQLSGLTSEDSAMYFCVRFPTGNDYYAMDYWGQGTSVTVSS VL: NIVLTQSPASLAVSLGQRATISCRASESVDSYGNSYMHWYQQKPGQPPKLLIYLASNLESGVPARFSGSGSRTDFTLTIDPVEADDAATYYCQQNNEDPFTFGSGTKLEIKR	Potency (IC50), MRC-5 bioassay [3]: 0.53 nM
–	–	chimeric 3D12.E3 Ab (3D12.E3-VH-hCγ1 / 3D12.E3-VL-hCk) (antibody, V domains shown) VH: QIQLVQSGPELKKPGETVKISCKASGYTFRNYGMNWVKQAPGKDLKRMAWINTYTGESTYADDFKGRFAFSLETSASTAYLQINNLKNEDTATYFCARGIYYYGSSYAMDYWGQGTSVTVSS VL: NIQMTQTTSSLSASLGDRVTISCRASQDISNCLNWYQQKPDGTVKLLIYYTSRLHSGVPSRFSGSGSGTDYSLTISNLEQEDIATYFCQQGKTLPYAFGGGTKLEINR	Potency (IC50), MRC-5 bioassay [4]: 0.7 nM
3.3	0.25	hIL-1a/bDVD5b-Ig (bispecific antibody, human IgG1, kappa) heavy: not shown light: QIVLTQSPAIMSASPGEKVTITCSASSSVSYMHWFQQKPGASPKLWIYSTSNLASGVPARFSGSGSGTSYSLTVSRMEAEDAATYYCQQRSTYPYTFGGGTKLEIKRTVAAPQIVLTQSPALMSASPGEKVTMTCSASSSVNYMYWYQQKPRSSPKPWIYLTSNLASGVPARFSGSGSGTSYSLTISSMEAEDAATYYCQQWNSNPYTFGGGTKLEMKRTVAAPSVFIFPPSDEQLKSGTASVVCLLNNFYPREAKVQWKVDNALQSGNSQESVTEQDSKDSTYSLSSTLTLSKADYEKHKVYACEVTHQGLSSPVTKSFNRGEC	–
2.6	19	hIL-1a/bDVD5a-Ig (bispecific antibody, human IgG1, kappa) heavy: not shown light: QIVLTQSPALMSASPGEKVTMTCSASSSVNYMYWYQQKPRSSPKPWIYLTSNLASGVPARFSGSGSGTSYSLTISSMEAEDAATYYCQQWNSNPYTFGGGTKLEMKRTVAAPQIVLTQSPAIMSASPGEKVTITCSASSSVSYMHWFQQKPGASPKLWIYSTSNLASGVPARFSGSGSGTSYSLTVSRMEAEDAATYYCQQRSTYPYTFGGGTKLEIKRTVAAPSVFIFPPSDEQLKSGTASVVCLLNNFYPREAKVQWKVDNALQSGNSQESVTEQDSKDSTYSLSSTLTLSKADYEKHKVYACEVTHQGLSSPVTKSFNRGEC	–
–	–	murine anti-hIL-1α mAb 6H3.1A4.3E11 (antibody, V domains shown) VH: QVQLQQPGAELVRPGASVKLSCKASGYTFTTYWMNWVKQRPEQGLEWIGRIDPYDSETLYSQKFKDTAILTVDKSSSTAYMQLSSLTSEDSAVYYCARYGFDYWGQGTTLTVSS VL: QIVLTQSPALMSASPGEKVTMTCSASSSVNYMYWYQQKPRSSPKPWIYLTSNLASGVPARFSGSGSGTSYSLTISSMEAEDAATYYCQQWNSNPYTFGGGTKLEMKR	IC50, inhibition of IL-8 production by MRC-5 cells [5]: 0.24 nM; IC50, MRC-5 bioassay [1]: 0.24 nM
0.35	0.5	hIL-1a/bDVD4b-Ig (bispecific antibody, human IgG1, kappa) heavy: not shown light: ETTVTQSPASLSMAIGEKVTIRCITSTDIDVDMNWYQQKPGEPPKLLISQGNTLRPGVPSRFSSSGSGTDFVFIIENMLSEDVADYYCLQSDNLPLTFGAGTKLELKRTVAAPSVFIFPPDIVMTQSQRFMSTSVGDRVSVTCKASQNVGTNIAWYQQKPGQSPRALIYSASYRYSGVPDRFTGSGSGTDFTLTISNVQSVDLAEYFCQQYTRYPLTFGGGTKLEIKRTVAAPSVFIFPPSDEQLKSGTASVVCLLNNFYPREAKVQWKVDNALQSGNSQESVTEQDSKDSTYSLSSTLTLSKADYEKHKVYACEVTHQGLSSPVTKSFNRGEC	–
0.35	10	hIL-1a/bDVD4a-Ig (bispecific antibody, human IgG1, kappa) heavy: not shown light: DIVMTQSQRFMSTSVGDRVSVTCKASQNVGTNIAWYQQKPGQSPRALIYSASYRYSGVPDRFTGSGSGTDFTLTISNVQSVDLAEYFCQQYTRYPLTFGGGTKLEIKRTVAAPSVFIFPPETTVTQSPASLSMAIGEKVTIRCITSTDIDVDMNWYQQKPGEPPKLLISQGNTLRPGVPSRFSSSGSGTDFVFIIENMLSEDVADYYCLQSDNLPLTFGAGTKLELKRTVAAPSVFIFPPSDEQLKSGTASVVCLLNNFYPREAKVQWKVDNALQSGNSQESVTEQDSKDSTYSLSSTLTLSKADYEKHKVYACEVTHQGLSSPVTKSFNRGEC	–
0.75	–	hIL-1a/bDVD3a-Ig (bispecific antibody, human IgG1, kappa) heavy: not shown light: DIVMTQSQRFMSTSVGDRVSVTCKASQNVGTNIAWYQQKPGQSPRALIYSASYRYSGVPDRFTGSGSGTDFTLTISNVQSVDLAEYFCQQYTRYPLTFGGGTKLEIKRTVAAPETTVTQSPASLSMAIGEKVTIRCITSTDIDVDMNWYQQKPGEPPKLLISQGNTLRPGVPSRFSSSGSGTDFVFIIENMLSEDVADYYCLQSDNLPLTFGAGTKLELKRTVAAPSVFIFPPSDEQLKSGTASVVCLLNNFYPREAKVQWKVDNALQSGNSQESVTEQDSKDSTYSLSSTLTLSKADYEKHKVYACEVTHQGLSSPVTKSFNRGEC	–
–	–	murine anti-hIL-1α mAb 18F4.2C8 (antibody, V domains shown) VH: EVQLQQSGAELVKPGASVKLSCTASGLNIKDTYMHWLKQRPEQGLEWIGRIDPANGNAKYDPRFLGKATITADTSSNTAYLQLSSLTSEDTAVYYCARGDGNFHFDYWGQGTTLTVSS VL: DIVMTQSQRFMSTSVGDRVSVTCKASQNVGTNIAWYQQKPGQSPRALIYSASYRYSGVPDRFTGSGSGTDFTLTISNVQSVDLAEYFCQQYTRYPLTFGGGTKLEIKR	IC50, inhibition of IL-8 production by MRC-5 cells [5]: 0.089 nM; IC50, MRC-5 bioassay [1]: 0.33 nM
2.3	70	hIL-1a/bDVD6a-Ig (bispecific antibody, human IgG1, kappa) heavy: not shown light: QIVLTQSPALMSASPGEKVTMTCSASSSVNYMYWYQQKPRSSPKPWIYLTSNLASGVPARFSGSGSGTSYSLTISSMEAEDAATYYCQQWNSNPYTFGGGTKLEMKRTVAAPSVFIFPPQIVLTQSPAIMSASPGEKVTITCSASSSVSYMHWFQQKPGASPKLWIYSTSNLASGVPARFSGSGSGTSYSLTVSRMEAEDAATYYCQQRSTYPYTFGGGTKLEIKRTVAAPSVFIFPPSDEQLKSGTASVVCLLNNFYPREAKVQWKVDNALQSGNSQESVTEQDSKDSTYSLSSTLTLSKADYEKHKVYACEVTHQGLSSPVTKSFNRGEC	–
